Changes are numbered by the printed parent chain.

Test [1] concerns the target T1, Recombinant DENV-2 sE (1-396) from strain 16681-PDK53 with C-terminal AviTag and poly-histidine tags (Dengue virus serotype 2 strain …, UniProt P29991 281-676, biotinylated on the AviTag for BLI).
T1 construct: Produced in Expi293F cells; biotinylated for BLI; also called DENV-2 E
The experiment in a line: BLI and ELISA on DENV-2 E glycoprotein.

Test [2] addresses Whole purified ZIKV (ZIKV/Brazil/2015) virions (Zika virus, ZIKV/Brazil/2015). The experiment in a line: cell-based or functional assay.
In test [3] the target is T1, Recombinant DENV-2 sE (1-396) from …. In words: ELISA on DENV-2 E. On the technique in general: In an ELISA, binding on a coated surface is turned into a signal by an enzyme label.
The target in test [4] is ZIKV H/PF/2013 reporter virus particle with E mutant (D67N, A69T) (Zika virus strain H/PF/2013). In words: cell-based or functional assay.
For test [5], the target named is ZIKV PR (Puerto Rican strain, PRVABC59) virus (Zika virus strain PRVABC59). In words: cell-based or functional assay.
The next test deals with DENV-2 (S16803) virus (Dengue virus serotype 2 strain S16803). The experiment in a line: cell-based or functional assay.

B1: rhMZ100-C (antibody, V domains shown)
VH: EVQLVESGGGLVQPGGSLRLSCAASGFTFSSDGMSWVRQAPGKGLEWVSYISSGGATTYYADSVKGRFTISRDNSKNTLSLQMNSLRGEDTAVYYCAKDITAPGRNGLDSWGQGVVVTVSS
VL: QSVLTQPPSLSASPGASARLPCTLSSDLNVGTKNMYWYQQKPGSAPRLFLYYYSDSDKQLGPGVPNRVSGSKETSSNTAFLLISGLQPEDEADYYCQVYDNSARVFGGGTRLTVLG
Consider B1, for which the binding result in test [1] is listed as “no binding”. In addition, the “FlowNT50 neutralization, IC50” value in test [2] fell in the range of 1 to 3 mg/L.

B2: MZ20 (antibody, V domains shown)
VH: EVQVVESGGGLVKPGGSLRLSCAASGFTFSHFYMTWIRQAPGKGLESISYIGGTGSPTYYADSVVGRFTISRDNAKNSVYLEMNSLRAEDTAIYYCVRAGGARIENWGQGTLVIVSS
VL: DIVMTQSPSSLSASVGDRVTITCQASHDINIYLNWYQQRPGKAPKLLIYDASRLETGVPSRFSGTGSGTDFTFTISNLQPEDFATYFCQHYYTLPRTFGQGTKVDIKR
Regarding B2, the binding result in test [3] is “binds”.

B3: MZ54 (antibody, V domains shown)
VH: EVQLVESGGGLVKPGGSLRLSCSASGFNFRDFYMGWVRQAPGKGLQWVSHIGDSGGAIYYTDSVEGRFSISRDNAKNSLYLQMNSLRVEDTAIYYCVCAGGGRTDYWGQGTLVTVSS
VL: DIVMTQSPSSLSASVGDRVTITCQATQDINIYLNWYQQKPGQAPKLLIYDASRLETGVPSRFSGRGSGTDFTFTISSLQPEDFGTYYCQHYYTVPRTFGQGTKVESRR
Turning to B3, the binding result in test [3] is on record as “binds”.

B4: rhMZ103-A (antibody, V domains shown)
VH: QVQLQESGPGLVKPSETLSLTCAVSGGSISGGYDWSWIRQPPGKGLEWIGYIYGSSGSTNYNPSLKNRVTISKDTSKNQFSLKLSSVTAADTAVYYCARPAYYEDDYGYYYTTPIFDYWGQGVLVTVSS
VL: QSVLTQPPSASGAPGQSVTISCSGSSSNIGSNYVYWYQQLPGTAPKLLIYYSNQRPSGVPDRFSGSKSGTSASLAITGLRSEDEADYYCAAWDNSLSSVLFGGGTRLTVLG
Regarding B4, the binding result in test [1] is “no binding”. Moreover, in test [4], the “neutralization in the reporter virus particle (RVP) assay, mutant against wild-type ZIKV H/PF/2013” value was found to be 5 fold. Further, in test [2], the “FlowNT50 neutralization, IC50” value fell in the range of 1 to 3 mg/L.

B5: MZ56 (antibody, V domains shown)
VH: EVQLVESGGDLVQPGGSLRLSCAASGFTFSNYAMHWVRQAPGKGLESVSAIGSNGDSIFYASSVKGRFTISRDNSKNTLYLQMGSLRADDMAVYFCARGWYYYDSRAYWYFDLWGRGTLVTVSS
VL: QPVLTQPASVSGSPGQSITISCTGTTSDVDDYNHVSWYQQYPGKAPRVMLYDVTKRPSGVPDRFSGSKSGNTASLTISGLQSEDEADYYCCSFADSHAIFGGGTKVTVLG
In the case of B5, in test [3], the binding result was “binds”.

B6: rhMZ107-B (antibody, V domains shown)
VH: QVQLQESGPGLVKPSETLSLTCAVSGYSISSGYYWGWIRQPPGKGLEYIGYISGSSGSTYYNPSLKSRVTISKDTSKNQFSLKLSSVTAADTAVYYCARRDRVGSYPYYYGLDSWGQGVLVTVSS
VL: QSVLTQPPSLSASPGASARLPCTLSSDLSVGSKNMYWYQQKPGSAPRLFLYYYSDSDKQLGPGVPNRVSGSKETSSNTAFLLISGLQPEDEADYYCQVYDGSANDVFGSGTKLTVLG
Regarding B6, in test [1], the binding result was “no binding”. In addition, in test [2], the “FlowNT50 neutralization, IC50” value was in the range of 1 to 3 mg/L.

B7: rhMZ104-D (antibody, V domains shown)
VH: EVQLVESGGGLAKPGGSLRLSCAASGFTFSDYYMDWVRQAPGKGLEWVSRISNGGGSTWYADSVKGRFTISRENAKNTLYLQMNSLRAEDTAVYYCARERYCSGGVCYAGTKYFDYWGQGVLVTVSS
VL: B6 VL with S2P, G101S, D105W, S109G, K112R
As for B7, the binding result in test [1] was “no binding”.

B8: rhMZ101-B (antibody, V domains shown)
VH: EVQLVESGGGLAKPGGSLRLSCAASGFSFSDYYMYWVRQAPGKGLEWVSGISYTGGSTYYADSVKGRFTISRENAKNTLYLQMDSLRAEDTAVYYCARVLYSGSYYYFDYWGQGVLVTVSS
VL: B6 VL with L82V, G101S, D105I
B8: in test [1], the binding result was “no binding”.

B9: rhMZ123-A (antibody, V domains shown)
VH: QLVQSGAEVKRPGESLRISCKTSGYSFTSYWISWVRQMPGKGLEWMGMIYPGDSDTRYSPSFQGQVTISADKSISTAYLQWSSLKASDTATYYCAKVDSSGWTNYFDYWGQGVLVTVSS
VL: QSALTQPPSVSKSLGQSVTISCTGTSSDIGGYNGVSWYQQHSGTAPRLLIYDVSKRPSGVSDRFSGSKSGNTASLTISGLQAEDEADYYCCSYRSGSTYIFGAGTRLTVLG
In the case of B9, the binding result in test [1] is “no binding”.

B10: rhMZ133-C (antibody, V domains shown)
VH: EVQLVESGGGLVQPGGSLRLSCAASGFTFSDYYMSWVRQAPGKGPEWVGFIRNKANGGTAEYAASVKGRFTVSRDDSKSIASLQMNSLKTEDTAVYYCAKHYCTGSGCYGAGLDSWGQGVVVTVSS
VL: QSVLTQPPSVSKSLGQSVTISCTGTSSDIGGSNDVSWYQQHPGTAPRLLIYNVSKRPSGVSDRFSGSKSGNTASLTISGLQAEDEADYYCCSYRSGSTLFGGGTRLTVLG
Take B10: in test [1], the binding result is recorded as “no binding”. Also, the “neutralization in the reporter virus particle (RVP) assay, mutant against wild-type ZIKV H/PF/2013” value in test [4] amounted to 2 fold.

B11: rhMZ124-D (antibody, V domains shown)
VH: QVQLQESGPGLVKPSETLSLTCAVSGDSISSGYYWGWIRQSPGRGLESFGFISGSGGTTYYNPSLKTRVTISKDTSKNQFSLKLSSVTAADTAVYYCARLGHPRGIAAGGVDYWGQGVLVTVSS
VL: QSALTQPPSLSASPGASARLPCTLSSDFSVGNKNMYWYQQKPGSAPGLFLYFYSDSDNQLGPGVPNRVSGSKEASSNTAFLLISGLQPEDEADYYCQVYDRAANILFGGGTRLTVLG
On to B11, for which, in test [1], the binding result is on record as “no binding”.

B12: rhMZ134-B (antibody, V domains shown)
VH: EVQLVESGGGLAKPGGSLRLSCAASGFTFSDYYMDWVRQAPGKGLEWVSRISNGGGSTWYADSVKGRFTISRENAKNTLYLQMNSLRAEDTAVYYCARGPEYCSSTYCSSAYCTGSGCYVDYGLDSWGQGVVVTVSS
VL: SYELTQPPSVSVSPGQMARITCGGDNIGSKNVQWYQQKPAQAPVLVIYADSERPSGIPERFSGSNSGNTATLTISGVEAGDEADYYCQVWDSSSDHVLFGGGTRLTVLG
As for B12, the binding result in test [1] is reported as “no binding”. Besides, the “neutralization in the reporter virus particle (RVP) assay, mutant against wild-type ZIKV H/PF/2013” value in test [4] amounted to 10 fold. The “micro-neutralization (MN50) in Vero cells, IC50” value in test [5] was 0.0038 mg/L. The “FlowNT50 neutralization, U937-DC-SIGN cells, IC50” value in test [2] amounted to 0.022 mg/L.

B13: rhMZ121-A (antibody, V domains shown)
VH: QVQLQESGPGLVKPSETLSLTCAVSGYSISSGYYWGWIRQPPGKGLEYIGYISGSSGSTYYNPSLKSRVTISKDTSKNQFSLKLSSVTAADTAVYYCARGNYYSGSYYLFWGQGVLVTVSS
VL: B12 VL with M17T, I27L, N31Y, Q33H, A49Y, E52D, N65K, V97W, L98V
In the case of B13, the binding result in test [1] is “no binding”.

B14: MZ4 (antibody, V domains shown)
VH: QVHLQESGPGLVRPSETLSLTCTVSDGSISSYYWSWIRQPPGKGLEWIGSIYYTGSTNYNPSLKSRVTMSVDTSKNQFSLRLNSVTAADTAMYYCAGLDRYSWNEGGDHWGQGILVSVSS
VL: QPVLTQPPSASGTPGQRVSISCSGSRSNLGKNTVNWYQQLPGTAPKLLIYNHSRRPSGVPERFSGSKSGTSASLAISGLQSEDEADYFCAAWDDSLNGLYVFGTGTKVTVLR
notes: also called MHRP ZIKV-1004
As to B14, the “flow-based neutralization assay using human monocytes (FlowNT), IC50” value was found to be 0.0209 mg/L with DENV-2 (S16803) virus and 0.0083 mg/L in test [2]. For the same molecule, the binding result in test [3] is given as “binds”.

B15: MZ1 (antibody, V domains shown)
VH: QVQLQESGPGLVKSSETLSLSCTVSGASISNFYWSWVRQPPGKGLEWMGSIYYTGTITYNPSLKSRLTMSVDTSKNQFSLKLNSVTAADTAVYSCAGLDRFNWNDEGDCWGQGTLVTVFS
VL: B14 VL with P2S, S19T, K31R, T43V, N51S, H52N, S53N, E61D, G69D, R112G
Turning to B15, the binding result in test [3] is given as “binds”.

B16: rhMZ119-D (antibody, V domains shown)
VH: EVQLVQSGAEVKRPGESLKISCKTSGYSFTSYWISWVRQMPGKGLEWMGAIDPSDSDTRYSPSFQGQVTISADKSISTAYLQWSSLKASDSATYYCAKEGIAARSLDVWGRGVLVTVSS
VL: SYELTQPPSVSVSPGQTARITCSGDALPKKYAYWFQQKPGQSPVLIIYEDSKRPSGIPERFSGSSSGTVATLTISGAQVEDEADYYCYSTDSSGYHGLFGGGTRLTVLG
Consider B16, for which the binding result in test [1] is recorded as “no binding”. The “FlowNT50 neutralization, U937-DC-SIGN cells, IC50” value in test [2] is 0.031 mg/L.

Source of the values: patent publication US20210238262A1 (HENRY M JACKSON FOUNDATION FOR THE ADVANCEMENT OF MILITARY …, published 2021).
